Assay results reported in the supplement of paper PMC7877785.
± gives the uncertainty stated by the source.

Test: self-splicing fitness, log relative to wild type (ln ratio); higher = more splicing; Tetrahymena group I intron in knt gene, E. coli kanamycin selection, DiMSum; sequences stand for … in CUCUCU…GGAGGGAAAAGUUAUCAGGCAUGCACCUGGUAGCUAGUCUUUAAACCAAUAGAUUGCAUCGGUUUAAAAGGCAAGACCGUCAAAUUGCGGGAAAGGGGUCAACAGCCGUUCAGUACCAAGUCUCAGGGGAAACUUUGAGAUGGCCUUGCAAAGGGUAUGGUAAUAAGCUGACGGACAUGGUCCUAACCACGCAGCCAAGUCCUAAGUCAACAGAUCUUCUGUUGAUAUGGAUGCAGUUCACAGACUAAAUGUCGGUCGGGGAAGAUGUAUUCUUCUCAUAAGAUAUAGUCGGACCUCUCCUUAAUGGGAGCUAGCGGAUGAAGUGAUGCAACACUGGAGCCGCUGGGAACUAAUUUGUAUGCGAAAGUAUAUUGAUUAGUUUUGGAGUACUCGUGGUCG
In short: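 Pooled colonies went to amplicon sequencing on an Illumina HiSeq 2500 after six replicate transformations. The plates were LB agar with 100 μg/mL carbenicillin, 50 μM IPTG and 0.2% rhamnose, with or without 25 μg/mL kanamycin, incubated overnight at 37°C or 30°C. The E. coli BL21(DE3) library had all eight P1ex-region intron nucleotides randomised, the intron placed in the knt kanamycin-resistance gene on pET-22b(+). DiMSum fitness is the error-weighted combination of replicate fold changes, kanamycin against none, normalised to wild type.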

Row | Sequence | self-splicing fitness (ln) (30 °C) | self-splicing fitness (ln) (37 °C)
1 | GGCCAGCAAUAUUACGAAAU | -2.92 ± 0.34 | -1.04 ± 0.18
2 | GGCCAGCAAUAUUACGAACC | 0.576 ± 0.31 | -0.0497 ± 0.4
3 | GGCCAGCAAUAUUACGACAC | -0.242 ± 0.1 | 0.0601 ± 0.17
4 | GGCCAGCAAUAUUACGAGCG | -0.269 ± 0.098 | 0.191 ± 0.13
5 | GGCCAGCAAUAUUACGAUCA | -2.93 ± 0.25 | -1.53 ± 0.16
6 | GGCCAGCAAUAUUACGAUGA | -3.07 ± 0.28 | -2.03 ± 0.22
7 | GGCCAGCAAUAUUACGAUGC | -0.639 ± 0.093 | 0.00176 ± 0.11
8 | GGCCAGCAAUAUUACGCCCA | -2.11 ± 0.35 | -0.809 ± 0.25
9 | GGCCAGCAAUAUUACGCCUG | -2.83 ± 0.27 | -1.68 ± 0.23
10 | GGCCAGCAAUAUUACGCGUG | -1.22 ± 0.079 | -0.385 ± 0.092
11 | GGCCAGCAAUAUUACGCUUA | -0.822 ± 0.15 | 0.139 ± 0.17
12 | GGCCAGCAAUAUUACGGACU | -2.24 ± 0.1 | -1.2 ± 0.1
13 | GGCCAGCAAUAUUACGGCAA | -0.216 ± 0.082 | -0.645 ± 0.087
14 | GGCCAGCAAUAUUACGGCAC | -1.58 ± 0.15 | -1.41 ± 0.19
15 | GGCCAGCAAUAUUACGGCAU | -1.13 ± 0.056 | -0.688 ± 0.066
16 | GGCCAGCAAUAUUACGGCCC | -2.83 ± 0.42 | 
17 | GGCCAGCAAUAUUACGGCCU | -3.58 ± 0.23 | -2.42 ± 0.27
18 | GGCCAGCAAUAUUACGGCGC | -1.79 ± 0.21 | -1.57 ± 0.34
19 | GGCCAGCAAUAUUACGGUGA | -0.376 ± 0.057 | 0.327 ± 0.076
20 | GGCCAGCAAUAUUACGGUGC | -2.91 ± 0.12 | -2.01 ± 0.11
21 | GGCCAGCAAUAUUACGGUUA | 0.0773 ± 0.069 | -0.541 ± 0.067
22 | GGCCAGCAAUAUUACGUAAC | -1.22 ± 0.082 | -1.19 ± 0.073
23 | GGCCAGCAAUAUUACGUAGC | -2.24 ± 0.16 | 0.278 ± 0.16

Row | Sequence | self-splicing fitness (ln) (30 °C) | self-splicing fitness (ln) (37 °C)
24 | GGCCAGCAAUAUUACGUAUG | -4.17 ± 0.31 | -2.85 ± 0.26
25 | GGCCAGCAAUAUUACGUCAG | -1.91 ± 0.13 | -2.98 ± 0.33
26 | GGCCAGCAAUAUUACGUCGU | -1.18 ± 0.061 | -0.452 ± 0.072
27 | GGCCAGCAAUAUUACGUGUC | -3.2 ± 0.17 | -1.41 ± 0.12
28 | GGCGAGCAAUAUUACGAAAU | -2.66 ± 0.25 | -0.868 ± 0.19
29 | GGCGAGCAAUAUUACGAACC | -2.56 ± 0.071 | -1.11 ± 0.085
30 | GGCGAGCAAUAUUACGAAGA |  | -1.49 ± 0.47
31 | GGCGAGCAAUAUUACGACAG | -3.57 ± 0.32 | 
32 | GGCGAGCAAUAUUACGACCA | -2.38 ± 0.39 | -1.05 ± 0.42
33 | GGCGAGCAAUAUUACGAGUC | -1.61 ± 0.36 | 
34 | GGCGAGCAAUAUUACGAUCA | -1.18 ± 0.17 | -0.735 ± 0.18
35 | GGCGAGCAAUAUUACGAUUG | -2.49 ± 0.13 | -2.05 ± 0.2
36 | GGCGAGCAAUAUUACGCACG | -2.49 ± 0.28 | -2.71 ± 0.36
37 | GGCGAGCAAUAUUACGGACA | -0.299 ± 0.23 | -0.824 ± 0.28
38 | GGCGAGCAAUAUUACGGACC |  | -0.87 ± 0.4
39 | GGCGAGCAAUAUUACGGACG | -0.223 ± 0.1 | -0.489 ± 0.21
40 | GGCGAGCAAUAUUACGGAGC |  | -2.17 ± 0.37
41 | GGCGAGCAAUAUUACGGCCC | 0.209 ± 0.31 | 
42 | GGCGAGCAAUAUUACGGGGU | -3.47 ± 0.25 | 
43 | GGCGAGCAAUAUUACGGGUA | -3.42 ± 0.26 | -2.79 ± 0.2
44 | GGCGAGCAAUAUUACGGUAU | -2.08 ± 0.13 | -1.04 ± 0.17
45 | GGCGAGCAAUAUUACGGUUA | -1.07 ± 0.11 | 0.0284 ± 0.088
